Test results from US20200181210A1, “MODIFIED CYCLIC PEPTIDES AND THERAPEUTIC USE THEREOF” (THE BROAD INSTITUTE, INC., priority 2017, published 2020).

Test system: trypsin
Assay: trypsin protease digestion resistance of cyclotides (SDS-PAGE)
Procedure: Protease conditions were tested on cyclotides and variants. Samples were subjected to 10 μg of trypsin at 37° C. for up to 24 hours. […] Four elutions were collected in 200 μL fractions. Protein content of bound/eluted material was quantified based upon detection of fluorescently labeled lysines within bound/eluted sequences.
The cyclotides and empty yeast vector were then subjected to 10 μg trypsin protease digestion at 37° C. for up to 24 hours.

Substance: pYES-MCoTI: native (natural) MCoTI cyclotide expressed in yeast from the pYES vector (cyclo(GGVCPKILQRCRRDSDCPGACICRGNGYCGSGSD); also: cyclic cystine knot, three disulfides CysI-IV, II-V, III-VI)
- resistance to trypsin digestion (10 μg trypsin, 37° C., up to 24 hours, SDS-PAGE): resistant to trypsin digestion
- resistance towards trypsin (trypsin exposure up to 18 hrs (FIG. 28)): resistance towards trypsin up to 18 hrs with no change in levels
